The values below come from patent US20130171217A1, “ENZYMATIC PERACID GENERATION FOR USE IN SKIN CARE PRODUCTS” (E I DU PONT DE NEMOURS AND COMPANY, priority 2010, published 2013).

Marks after values point to notes of the source that are not given here.

Data set [1] is described as follows: Single fiber tensile strength after one-step enzymatic application. As to the method:
Hair samples were cut into pieces 4-inches in length. The denier number (liner mass density) of each hair fiber was measured by Textechno Vibromat Instrument (Textechno Herbert Stein GmbH & Co. KG; Germany). The hair fibers were tested according to ASTM D 3822-01 (“Tensile Properties of Single Textile Fibers”; ASTM International, West Conshohocken, Pa., 2001), on an Instron testing system (Instron Model 1122 Tester; Instron, Mass.) at about 70° F. (approximately 21° C.) and 65% relative humidity. The treated area of the hair sample was placed in the middle of the gauge and both ends were gripped on the test heads. Both fiber ends were attached on a piece of tape, respectively, for easy handling and gripping on the test heads. The test used 2-inch (5.1 cm) gauge length, […], and 1.2 inch/min (3 cm/min) pulling rate. The force-strain curve of the fiber was recorded during the test. The tenacity at maximum (gf/den) was calculated by dividing maximum force (gf) by denier number (den). Note that (gf/den)/11.33=Newtons/tex (N/tex).
The first method (referred to herein as the “one-step approach”) comprises combining different amounts of at least one CE-7 perhydrolase with triacetin (an example of a suitable ester substrate) and hydrogen peroxide to generate peracetic acid. Hair bundles were inserted into “one step approach” solutions for 15 min immediately after mixing the enzyme solution with triacetin solution (final concentration was about 100 mM) and H2O2 solution (final concentration was about 250 mM). The hair samples were rinsed with water and dried. The method was repeated for another 15 times (total application was 16 times). In one experiment, two perhydrolase enzymes were used, i.e., untargeted T. maritima variant C277S (“C277S”; “PAH”; SEQ ID NO: 293) and “C277S-HC263” (SEQ ID NO: 288). The concentration of peracetic acid in solution after 15 min was evaluated by HPLC.

Data set [2] in a line: Perhydrolase activity remaining bound to hair, ABTS assay. In kind it is binding, human. As to the method: Ten mg of human hair was submerged in 2 mL of a binding solution containing 50 μg/mL of the Thermotoga maritima perhydrolase targeted to hair via the hair binding peptide HC263 (C277S-HC263; SEQ ID NO: 288; also referred to herein as “HC1121”) in 50 mM pH 7.2 potassium phosphate buffer containing 5% of the test surfactant. The test surfactants were two nonionic surfactants: TWEEN®-20 (Sigma, St Louis, Mo.), and TRITON®-X 100 (Aldrich, St Louis, Mo.), and two ionic surfactants: CHEMBETAINE™ CAD (Cocamidopropyl betaine; Lubrizol, Wickliffe, Ohio) and RHODAPEX® ES-2K (sodium laurel ether sulfate; Rhodia Novecare, Cranbury, N.J.).
Hair was incubated in the binding solution at room temperature (˜22° C.) with gentle agitation for 30 minutes, at which time the solution was removed by aspiration and the hair rinsed with 1% TWEEN®-20 in 50 mM pH 7.2 potassium phosphate buffer. The hair was removed from the tube, blotted dry with paper towel, and transferred to a new set of tubes. The hair was rinsed once with 1% TWEEN®-20 in 50 mM pH 7.2 potassium phosphate buffer and then rinsed three times with 50 mM pH 7.2 potassium phosphate buffer. Perhydrolase activity remaining bound to the hair was determined by the ABTS assay.
The ABTS assay was performed as follows: hair samples treated as described above were transferred to new 2-mL microcentrifuge tubes (Eppendorf Protein LoBind; Eppendorf North America, Hauppauge, N.Y.) To each tube was added 480 μL of PAH buffer (50 mM potassium phosphate, pH 7.2), 14 μL of 39% hydrogen peroxide (Sigma 3410), and 6 μL triacetin (Sigma-Aldrich W200700). The perhydrolase reaction was allowed to proceed for 10 minutes at room temperature (˜22-25° C.). The reaction was stopped by diluting aliquots 10×, 100× and 1000× with 10 mM phosphoric acid. For detection 50 μL of 1 M acetic acid, 50 μL of 40 mg/mL potassium iodide, and 50 μL of 4 mM ABTS (2,2′-azino-bis(3-ethylbenzthiazoline-6-sulphonic acid; Sigma, St Louis, Mo.) were added to 50 μL of the above dilutions. Color was allowed to develop for 10 minutes and read in a spectrophotometer at 405 nm. Values from no-enzyme controls were subtracted to yield values attributable only to enzyme activity. A standard curve of OD 405 nm vs PAA concentration in ppm yielded a conversion factor of 8.75, such that an OD 405 nm of 1.0 corresponded to approximately 8.75 ppm PAA. This value was then multiplied by the appropriate dilution to arrive at the PAA concentration in the perhydrolase reaction.
The Thermotoga maritima perhydrolase targeted to hair via the hair binding peptide HC263 (C277S-HC263; SEQ ID NO: 288) was diluted to 50 μg/mL in a solution of 5% PEG-80 sorbitan laurate in 100 mM citrate-phosphate buffer adjusted to pH 4.9, pH 5.5, pH 6.0, or pH 7.0. Ten mg of human hair was added to 2 mL of the above formulations and incubated with gentle agitation for 5 minutes at room temperature to allow enzyme binding to hair. A no-enzyme control sample was included with each pH. After binding, the binding solution was removed by aspiration and the hair was washed with 2 mL of 1% TWEEN®-20 in 50 mM pH 7.2 potassium phosphate buffer. The hair was removed from the tube, blotted dry with paper towel, and transferred to a new set of tubes. The hair was rinsed once with 1% TWEEN®-20 in 50 mM pH 7.2 potassium phosphate buffer and then rinsed three time with 50 mM pH 7.2 potassium phosphate buffer. Perhydrolase activity remaining bound to the hair was determined by the ABTS assay. The results are given as ppm PAA produced at 10 minutes (after subtraction of the no-enzyme control values)
The Thermotoga maritima perhydrolase targeted to hair via the hair binding peptide HC263 (C277S-HC263; SEQ ID NO: 288) was diluted to 50 μg/mL in a solution of 5% PEG-80 sorbitan laurate in 100 mM citrate-phosphate buffer adjusted to pH 6.0. […]

Setting [3] is: 50 μg/mL, pH 6.0, binding 1 min, at 10 minutes.

B1: C277S-HC263: C277S variant of Thermotoga maritima perhydrolase fused via a flexible linker to hair-binding domain HC263 (protein)
chain: MAFFDLPLEELKKYRPERYEEKDFDEFWEETLAESEKFPLDPVFERMESHLKTVEAYDVTFSGYRGQRIKGWLLVPKLEEEKLPCVVQYIGYNGGRGFPHDWLFWPSMGYICFVMDTRGQGSGWLKGDTPDYPEGPVDPQYPGFMTRGILDPRTYYYRRVFTDAVRAVEAAASFPQVDQERIVIAGGSQGGGIALAVSALSKKAKALLCDVPFLCHFRRAVQLVDTHPYAEITNFLKTHRDKEEIVFRTLSYFDGVNFAARAKIPALFSVGLMDNISPPSTVFAAYNYYAGPKEIRIYPYNNHEGGGSFQAVEQVKFLKKLFEKGGPGSGGAGSPGSAGGPGSPSAQSQLPDKHSGLHERAPQRYGPEPEPEPEPIPEPPKEAPVVIEKPKPKPKPKPKPPAHDHKNQKETHQRHAAGSGGGGSPHHHHHH
For the molecule B1, the “Ten. @ Max” value in data set [1] (0.05 mg/mL enzyme, urea 0 wt %, 15 min × 16) is reported as 1.0 gf/den; in data set [1] (0.25 mg/mL enzyme, urea 0 wt %, 15 min × 16, average of less than 3 strands) it was 0.4^# gf/den; in data set [1] (0.5 mg/mL enzyme, urea 0 wt %, 15 min × 16), 0.7 gf/den. In addition, the “Perhydrolase Activity Retained on Hair, ppm PAA” value is 455 ppm in data set [2] (50 μg/mL enzyme bound 30 min in 5% CHEMBETAINE™ CAD), 315 ppm in data set [2] (50 μg/mL enzyme bound 30 min in 5% RHODAPEX® ES-2K), 1540 ppm in data set [2] (50 μg/mL enzyme bound 30 min in 5% TRITON®-X 100) and 2126 ppm in data set [2] (50 μg/mL enzyme bound 30 min in 5% TWEEN®-20). The “ppm PAA” value in data set [2] (50 μg/mL, 5% PEG-80 sorbitan laurate pH 6.0, binding 10 min, PAA at 10 minutes) amounted to 581 ppm. The “Perhydrolase Activity Deposited on Hair, ppm PAA” value is given as 954 ppm in data set [2] (50 μg/mL, 5% PEG-80 sorbitan laurate pH 6.0, binding time 0.5 min); 437 ppm in data set [2] (50 μg/mL, 5% PEG-80 sorbitan laurate, binding 5 min, pH 4.9); 1312 ppm in data set [2] (binding 5 min, pH 5.5); 1137 ppm in data set [2] (binding 5 min, pH 6.0); 385 ppm in data set [2] (binding 5 min, pH 7.0); 962 ppm in data set [2] (pH 6.0, binding time 1 min). Also, the “Perhydrolase Activity Deposited on Hair, ppm PAA” value was found to be 988 ppm in data set [2] (pH 6.0, binding time 2 min) and 1093 ppm in data set [2] (pH 6.0, binding time 5 min). For the same molecule, the “values obtained (ABTS assay)” value in data set [2] (bound in 5% CHEMBETAINE™ CAD) is 0.52; in data set [2] (bound in 5% RHODAPEX® ES-2K), 0.36; in data set [2] (bound in 5% TRITON®-X 100) it was 1.76; in data set [2] (bound in 5% TWEEN®-20), 2.43.

B2: SEQ ID NO: 323: S54V variant of the aryl esterase from Mycobacterium smegmatis fused to hair binding domain HC263 via a flexible linker (protein)
chain: MAKRILCFGDSLTWGWVPVEDGAPTERFAPDVRWTGVLAQQLGADFEVIEEGLVARTTNIDDPTDPRLNGASYLPSCLATHLPLDLVIIMLGTNDTKAYFRRTPLDIALGMSVLVTQVLTSAGGVGTTYPAPKVLVVSPPPLAPMPHPWFQLIFEGGEQKTTELARVYSALASFMKVPFFDAGSVISTDGVDGIHFTEANNRDLGVALAEQVRSLLGPGSGGAGSPGSAGGPGSPSAQSQLPDKHSGLHERAPQRYGPEPEPEPEPIPEPPKEAPVVIEKPKPKPKPKPKPPAHDHKNQKETHQRHAAGSGGGGSPHHHHHH
B2: the “ppm PAA” value in data set [2] (50 μg/mL, binding 1 min, hair with no PAA treatment) came out at 269 ppm; in data set [2] (50 μg/mL, binding 1 min, hair with one PAA treatment (0.2% PAA, 1 hr)) it was 526 ppm; in data set [2] (50 μg/mL, binding 1 min, hair with two PAA treatments), 702 ppm. Also, the “OD 405nm” value in data set [2] (setting [3]) is 0.237. The molecule also returned a Peracetic acid in data set [2] (setting [3]) of 207 ppm.

B3: C277S: non-targeted C277S variant of the Thermotoga maritima perhydrolase, un-targeted control (protein, listed as Thermotoga maritima)
chain: MAFFDLPLEELKKYRPERYEEKDFDEFWEETLAESEKFPLDPVFERMESHLKTVEAYDVTFSGYRGQRIKGWLLVPKLEEEKLPCVVQYIGYNGGRGFPHDWLFWPSMGYICFVMDTRGQGSGWLKGDTPDYPEGPVDPQYPGFMTRGILDPRTYYYRRVFTDAVRAVEAAASFPQVDQERIVIAGGSQGGGIALAVSALSKKAKALLCDVPFLCHFRRAVQLVDTHPYAEITNFLKTHRDKEEIVFRTLSYFDGVNFAARAKIPALFSVGLMDNISPPSTVFAAYNYYAGPKEIRIYPYNNHEGGGSFQAVEQVKFLKKLFEKG
Take B3: the “Ten. @ Max” value in data set [1] (0.05 mg/mL enzyme, urea 10 wt %, 15 min × 16) was 0.3 gf/den; in data set [1] (0.25 mg/mL enzyme, urea 10 wt %, 15 min × 16, average of less than 3 strands) it was 0.6^# gf/den; in data set [1] (0.5 mg/mL enzyme, urea 10 wt %, 15 min × 16), 0.6 gf/den.
